Laboratory results: publication PMC9485624

Columns and labels:
[1] = target: recombinant truncated CrrB (135-353 amino acids) (Klebsiella pneumoniae); assay: not stated; purified recombinant His-tagged protein after Ni-NTA; how dimer and monomer were told apart is not stated in the text (Supplementary Figure S1)
[2] = target: recombinant truncated CrrB (135-353 amino acids) P151L mutant (Klebsiella pneumoniae); assay: as above

| Substance | stoichiometry N [1] | stoichiometry N [2] |
| --- | --- | --- |
| recombinant truncated CrrB (135-353 amino acids) (domain or fragment) | 2 | – |
| recombinant truncated CrrB (135-353 amino acids) P151L mutant (domain or fragment) | – | 2 |
